The text below walks through data of EP4328238A1 (Ustav organicke chemie a biochemie AV CR, v.v.i., dated 2024).

Assay [1] addresses His-C3d N1134A (human) (UniProt P01024). Put plainly: SPR; ISG65-Avi immobilised, C3d mutant as analyte; the table prints 25. Background: In SPR one partner is held on a chip, and binding of the other changes the refractive index at the surface.
Assay [2] deals with Human C3(H2O) (human) (UniProt P01024). Kind of assay: SPR (BIAcore T200, 25°C); biotinylated ISG65-Avi immobilised, C3(H2O) as analyte.
The target in assay [3] is His-C3d N1134A (human) (UniProt P01024). Kind of assay: SPR (BIAcore T200, 25°C); biotinylated ISG65-Avi immobilised, C3d N1134A as analyte.
In assay [4] the target is Human C3(H2O) (human) (UniProt P01024). Kind of assay: SPR (BIAcore T200, 25°C); biotinylated ISG65-Avi immobilised, C3(H2O) as analyte; column kon1.
The target is the same in assay [5]. Put plainly: SPR (BIAcore T200, 25°C); biotinylated ISG65-Avi immobilised, C3(H2O) as analyte; column koff1.
The target in assay [6] is His-C3d N1134A (human) (UniProt P01024). Kind of assay: SPR (BIAcore T200, 25°C); biotinylated ISG65-Avi immobilised, C3d N1134A as analyte; column kon1.
For assay [7] the target is unchanged. Put plainly: SPR (BIAcore T200, 25°C); biotinylated ISG65-Avi immobilised, C3d N1134A as analyte; column koff1.
The target is the same in assay [8]. Put plainly: SPR (BIAcore T200, 25°C); biotinylated ISG65-Avi immobilised, C3d N1134A as analyte; relative to wild type.
In assay [9] the target is T1, Native human complement factor 3 (C3) (human, UniProt P01024 23-667; P01024 672-1663).
T1 construct: Purified from normal human serum (Sigma-Aldrich); also called native C3; human C3
Put plainly: SPR (BIAcore T200, 25°C); biotinylated ISG65-Avi immobilised, C3 as analyte.

In assay [10] the target is T2, Human C3a (ANA domain of C3 when released) (human, UniProt P01024 672-748).
T2 construct: domain: C3a; also called free C3a; recombinant C3a
Kind of assay: SPR (BIAcore T200, 25°C); biotinylated ISG65-Avi immobilised, C3a as analyte.

Assay [11] addresses T3, Human C3b (human, UniProt P01024 749-1663; P01024 23-667).
T3 construct: domain: α-chain of C3b;domain: β-chain of C3b
Kind of assay: SPR (BIAcore T200, 25°C); biotinylated ISG65-Avi immobilised, C3b as analyte.

The target of assay [12] is T4, His-C3d (recombinant human C3d, thioester domain of C3) (human, UniProt P01024 996-1303).
T4 construct: domain: C3d; also called C3d Wt; TED; not shown: His-tag
Put plainly: SPR (BIAcore T200, 25°C); biotinylated ISG65-Avi immobilised, C3d Wt as analyte.

Assay [13] has as its target T5, His-C3d E1110A (human, UniProt P01024 996-1303).
T5 construct: domain: C3d; not shown: His-tag
Put plainly: SPR (BIAcore T200, 25°C); biotinylated ISG65-Avi immobilised, C3d E1110A as analyte.

For assay [14], the target named is T6, His-C3d L1109A (human, UniProt P01024 996-1303).
T6 construct: domain: C3d; not shown: His-tag
Kind of assay: SPR (BIAcore T200, 25°C); biotinylated ISG65-Avi immobilised, C3d L1109A as analyte.

Assay [15] addresses T1, Native human complement factor 3 (C3). Put plainly: SPR (BIAcore T200, 25°C); biotinylated ISG65-Avi immobilised, C3 as analyte; column kon1.
Assay [16] has the same target. Put plainly: SPR (BIAcore T200, 25°C); biotinylated ISG65-Avi immobilised, C3 as analyte; column koff1.
In assay [17] the target is T3, Human C3b. Put plainly: SPR (BIAcore T200, 25°C); biotinylated ISG65-Avi immobilised, C3b as analyte; column kon1.
Assay [18] has as its target T3, Human C3b. Kind of assay: SPR (BIAcore T200, 25°C); biotinylated ISG65-Avi immobilised, C3b as analyte; column koff1.
The target in assay [19] is T4, His-C3d (recombinant human C3d, …). Kind of assay: SPR (BIAcore T200, 25°C); biotinylated ISG65-Avi immobilised, C3d Wt as analyte; column kon1.
Assay [20] has the same target. Kind of assay: SPR (BIAcore T200, 25°C); biotinylated ISG65-Avi immobilised, C3d Wt as analyte; column koff1.
The target in assay [21] is T7, His-C3d-Avi (N-terminal His-tag, C-terminal Avi-tag, biotinylated) (human, UniProt P01024 996-1303, site-specific biotin on the C-terminal Avi-tag).
T7 construct: domain: C3d; Immobilised ligand in SPR for the ISG65 mutants; not shown: N-terminal His-tag; C-terminal Avi-tag
Kind of assay: SPR (BIAcore T200, 25°C); biotinylated C3d-Avi immobilised, ISG65 Y293A as analyte.

His-C3d N1134A (human), sequence (P01024 996-1303, stated change not applied): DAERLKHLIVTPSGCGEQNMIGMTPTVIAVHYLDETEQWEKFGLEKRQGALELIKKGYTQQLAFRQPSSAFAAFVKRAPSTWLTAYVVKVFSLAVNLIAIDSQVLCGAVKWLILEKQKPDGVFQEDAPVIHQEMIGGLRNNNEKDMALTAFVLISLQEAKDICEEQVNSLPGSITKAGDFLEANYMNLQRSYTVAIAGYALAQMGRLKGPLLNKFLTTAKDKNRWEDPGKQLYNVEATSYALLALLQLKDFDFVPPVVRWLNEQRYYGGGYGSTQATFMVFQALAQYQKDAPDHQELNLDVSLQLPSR
T4 sequence (P01024 996-1303 limits assumed): as the sequence (P01024 996-1303, stated change not applied) above
T3 sequence (P01024 749-1663 limits assumed, chain 1 of 2): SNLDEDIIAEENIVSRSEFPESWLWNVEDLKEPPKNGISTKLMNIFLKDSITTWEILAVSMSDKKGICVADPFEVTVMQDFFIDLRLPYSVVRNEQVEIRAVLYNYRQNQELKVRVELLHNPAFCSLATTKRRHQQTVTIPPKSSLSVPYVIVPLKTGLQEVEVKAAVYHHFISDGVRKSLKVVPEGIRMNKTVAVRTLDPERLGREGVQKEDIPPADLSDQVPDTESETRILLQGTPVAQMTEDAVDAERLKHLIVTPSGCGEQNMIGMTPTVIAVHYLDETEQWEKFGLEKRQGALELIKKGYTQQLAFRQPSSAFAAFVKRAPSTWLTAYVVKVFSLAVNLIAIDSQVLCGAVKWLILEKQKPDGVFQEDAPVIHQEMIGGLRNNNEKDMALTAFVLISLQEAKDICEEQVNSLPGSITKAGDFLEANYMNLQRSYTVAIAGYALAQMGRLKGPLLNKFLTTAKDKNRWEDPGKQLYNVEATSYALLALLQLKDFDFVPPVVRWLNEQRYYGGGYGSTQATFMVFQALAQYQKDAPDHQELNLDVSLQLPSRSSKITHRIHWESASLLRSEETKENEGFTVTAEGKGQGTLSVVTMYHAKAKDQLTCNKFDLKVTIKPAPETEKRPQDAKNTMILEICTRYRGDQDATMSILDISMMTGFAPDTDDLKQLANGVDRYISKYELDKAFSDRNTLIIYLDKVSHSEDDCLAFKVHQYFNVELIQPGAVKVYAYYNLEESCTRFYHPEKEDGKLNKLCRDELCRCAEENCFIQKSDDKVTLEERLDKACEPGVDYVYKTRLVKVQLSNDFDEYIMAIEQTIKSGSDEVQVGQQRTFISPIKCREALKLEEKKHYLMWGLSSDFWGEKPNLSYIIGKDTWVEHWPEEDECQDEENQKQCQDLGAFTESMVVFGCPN
T3 sequence (P01024 23-667 limits assumed, chain 2 of 2): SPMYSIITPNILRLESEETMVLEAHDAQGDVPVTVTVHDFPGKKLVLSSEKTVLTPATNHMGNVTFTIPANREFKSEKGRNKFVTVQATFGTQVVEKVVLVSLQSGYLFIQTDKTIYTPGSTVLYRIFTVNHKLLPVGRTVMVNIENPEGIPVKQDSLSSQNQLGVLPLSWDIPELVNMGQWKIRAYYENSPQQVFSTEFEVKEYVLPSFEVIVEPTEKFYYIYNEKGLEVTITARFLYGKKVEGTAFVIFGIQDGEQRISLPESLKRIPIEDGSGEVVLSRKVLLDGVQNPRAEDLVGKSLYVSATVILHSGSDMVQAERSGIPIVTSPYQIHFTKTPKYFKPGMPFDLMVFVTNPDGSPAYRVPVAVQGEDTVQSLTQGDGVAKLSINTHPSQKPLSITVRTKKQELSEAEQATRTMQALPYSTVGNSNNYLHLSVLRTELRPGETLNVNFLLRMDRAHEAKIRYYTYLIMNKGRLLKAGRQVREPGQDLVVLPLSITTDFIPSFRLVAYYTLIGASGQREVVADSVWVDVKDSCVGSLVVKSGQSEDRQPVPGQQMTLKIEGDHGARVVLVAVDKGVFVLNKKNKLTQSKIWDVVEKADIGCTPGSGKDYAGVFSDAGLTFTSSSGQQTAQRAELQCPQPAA
T1 sequence (P01024 23-667 limits assumed, chain 1 of 2): as the sequence (P01024 23-667 limits assumed, chain 2 of 2) above
T1 sequence (P01024 672-1663 limits assumed, chain 2 of 2): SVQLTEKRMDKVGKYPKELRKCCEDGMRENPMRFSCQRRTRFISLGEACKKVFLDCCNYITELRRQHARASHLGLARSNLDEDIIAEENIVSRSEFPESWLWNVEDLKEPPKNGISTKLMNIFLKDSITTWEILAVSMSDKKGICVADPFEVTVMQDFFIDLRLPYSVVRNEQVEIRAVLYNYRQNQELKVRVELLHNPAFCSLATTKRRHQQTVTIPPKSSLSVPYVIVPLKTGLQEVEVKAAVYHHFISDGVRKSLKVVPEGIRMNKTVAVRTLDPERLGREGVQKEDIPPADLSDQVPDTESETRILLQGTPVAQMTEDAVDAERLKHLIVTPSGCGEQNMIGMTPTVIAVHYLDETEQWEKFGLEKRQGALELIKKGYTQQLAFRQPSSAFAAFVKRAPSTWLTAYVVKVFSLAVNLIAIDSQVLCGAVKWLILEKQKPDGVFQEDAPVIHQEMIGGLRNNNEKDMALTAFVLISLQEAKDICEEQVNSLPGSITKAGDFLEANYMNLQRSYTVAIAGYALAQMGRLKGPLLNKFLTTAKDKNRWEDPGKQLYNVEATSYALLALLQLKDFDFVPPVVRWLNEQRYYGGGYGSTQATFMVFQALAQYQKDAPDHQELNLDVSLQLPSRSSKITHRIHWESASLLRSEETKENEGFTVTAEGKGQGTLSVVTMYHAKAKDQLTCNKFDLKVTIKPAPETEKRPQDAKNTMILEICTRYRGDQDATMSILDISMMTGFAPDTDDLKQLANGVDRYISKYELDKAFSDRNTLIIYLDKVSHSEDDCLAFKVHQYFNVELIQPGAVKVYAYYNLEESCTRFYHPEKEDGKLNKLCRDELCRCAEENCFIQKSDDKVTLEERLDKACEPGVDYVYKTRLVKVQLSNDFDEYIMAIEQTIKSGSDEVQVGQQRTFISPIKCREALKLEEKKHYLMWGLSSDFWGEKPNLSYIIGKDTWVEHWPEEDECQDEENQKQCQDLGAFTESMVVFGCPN
T5 sequence (P01024 996-1303 E1110A limits assumed): as the sequence (P01024 996-1303, stated change not applied) above, with E115A counted along it
T6 sequence (P01024 996-1303 L1109A limits assumed): as the sequence (P01024 996-1303, stated change not applied) above, with L114A counted along it
T7 sequence (P01024 996-1303 limits assumed): as the sequence (P01024 996-1303, stated change not applied) above
T2 sequence (P01024 672-748 limits assumed): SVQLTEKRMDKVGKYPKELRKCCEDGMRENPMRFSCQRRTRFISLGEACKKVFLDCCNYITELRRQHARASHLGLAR

What is called Kd is the concentration at which binding is half-saturated. As a reminder, the kon is a measure of how fast the partners come together. For orientation: koff means the rate constant with which the complex falls apart. In [1], “His-ISG65 18-363-Avi (N-terminal hexa-histidine tag, C-terminal Avi-tag, biotinylated) (receptor)” registered a binding affinity (% of wild type) of 24%. Moreover, the Kd in assay [2] was found to be 18 nM; in assay [3] it was 28.6 nM. Besides, the on-rate constant (kon) came out at 942000 M⁻¹ s⁻¹ in [4] and 1.89e+06 M⁻¹ s⁻¹ in assay [6]. The off-rate (koff) in assay [5] was determined as 0.017 s⁻¹; in assay [7] it was 0.0542 s⁻¹. Also, in assay [8], the ISG65 binding (%) came to 25%.

B1: His-ISG65 18-363-Avi (N-terminal hexa-histidine tag, C-terminal Avi-tag, biotinylated) (receptor)
chain: LLVIGSEDNRVPGDKKLTKEGAAALCKMKHLADKVAKERSQELKDRTQNFAGYIEFELYRIDYWLEKLNGPKGRKDGYAKLSDSDIEKVKEIFNKAKDGITKQLPEAKKAGEEAGKLHTEVKKAAENARGQDLDDDTAKSTGLYRVLNWYCITKEERHNATPNCDGIQFRKHYLSVNRSAIDCSSTSYEENYDWSANALQVALNSWEDVKPKKLESAGSDKNCNIGQSSESHPCTMTEEWQTPYKETVEKLRELEDAYQRGKKAHDAMLGYANTAYAVNTKVEQEKPLTEVIAAAKEAGKKGAKIIIPAAAPATPTNSTKNDDSAPTEHVDRGIATNETQVEVGID
modifications: site-specific biotin on the C-terminal Avi-tag
notes: Immobilised ligand in SPR on a CAP chip; also called ISG65-Avi; biotinylated ISG65; not shown: N-terminal hexa-histidine tag of pET15b construct; C-terminal Avi-tag
For the molecule B1, the dissociation constant (Kd) in assay [9] was found to be 129 nM; in [10], 18100 nM; in assay [11], 80.9 nM; in assay [12], 7.2 nM; in assay [13], 15.7 nM; in assay [14] it was 52.9 nM. Further, the kon came out at 81800 M⁻¹ s⁻¹ in [15], 262000 M⁻¹ s⁻¹ in [17] and 5.24e+06 M⁻¹ s⁻¹ in assay [19]. Further, the dissociation rate constant (koff) in assay [16] was 0.0543 s⁻¹; in assay [18] it was 0.0212 s⁻¹; in assay [20], 0.0379 s⁻¹.

B2: His-ISG65 18-363 Y293A (receptor)
chain: MGSSHHHHHHSSGLVPRGSHMLLVIGSEDNRVPGDKKLTKEGAAALCKMKHLADKVAKERSQELKDRTQNFAGYIEFELYRIDYWLEKLNGPKGRKDGYAKLSDSDIEKVKEIFNKAKDGITKQLPEAKKAGEEAGKLHTEVKKAAENARGQDLDDDTAKSTGLYRVLNWYCITKEERHNATPNCDGIQFRKHYLSVNRSAIDCSSTSYEENYDWSANALQVALNSWEDVKPKKLESAGSDKNCNIGQSSESHPCTMTEEWQTPYKETVEKLRELEDAYQRGKKAHDAMLGYANTAAAVNTKVEQEKPLTEVIAAAKEAGKKGAKIIIPAAAPATPTNSTKNDDSAPTEHVDRGIATNETQVEVGID
notes: also called ISG65 Y293A
On to B2, for which, in assay [21], the binding result is “no binding (tested: ISG65 analyte 1.5-100 nM)”.
